Data reported in paper PMC4186968, “Molecular Basis for Coordinating Transcription Termination with Noncoding RNA Degradation” (Molecular Cell, 2014).
Where a SMILES comes first, the peptide text is derived from it.

T1: FAM-labeled Trf4p NIM peptide
T1 chain: DDDEDGYNPYTL

T2: Nrd1p CID (Saccharomyces cerevisiae, UniProt P53617)
T2 construct: the CID (residues 1–153) of Nrd1p; His6 (C); made in house
T2 sequence (P53617 1-153): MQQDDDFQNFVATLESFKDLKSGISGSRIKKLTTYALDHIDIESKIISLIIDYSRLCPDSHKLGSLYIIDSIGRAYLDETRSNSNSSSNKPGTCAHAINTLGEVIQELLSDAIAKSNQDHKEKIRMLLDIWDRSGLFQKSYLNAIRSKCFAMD


Molecular target: T1, FAM-labeled Trf4p NIM peptide
Test: fluorescence anisotropy (FA) equilibrium binding
Conditions: chain shown with the change

Molecule | Kd [µM]
Nrd1p CID (residues 1-153), P53617 L20D (protein) MQQDDDFQNFVATLESFKDDKSGISGSRIKKLTTYALDHIDIESKIISLIIDYSRLCPDSHKLGSLYIIDSIGRAYLDETRSNSNSSSNKPGTCAHAINTLGEVIQELLSDAIAKSNQDHKEKIRMLLDIWDRSGLFQKSYLNAIRSKCFAMD | 44.9
Nrd1p CID (residues 1-153), P53617 R28D (protein) MQQDDDFQNFVATLESFKDLKSGISGSDIKKLTTYALDHIDIESKIISLIIDYSRLCPDSHKLGSLYIIDSIGRAYLDETRSNSNSSSNKPGTCAHAINTLGEVIQELLSDAIAKSNQDHKEKIRMLLDIWDRSGLFQKSYLNAIRSKCFAMD | 96.9
Nrd1p CID (residues 1-153), P53617 I130K (protein) MQQDDDFQNFVATLESFKDLKSGISGSRIKKLTTYALDHIDIESKIISLIIDYSRLCPDSHKLGSLYIIDSIGRAYLDETRSNSNSSSNKPGTCAHAINTLGEVIQELLSDAIAKSNQDHKEKIRMLLDKWDRSGLFQKSYLNAIRSKCFAMD | 20.7
Nrd1p CID (residues 1-153), P53617 D70A (protein) MQQDDDFQNFVATLESFKDLKSGISGSRIKKLTTYALDHIDIESKIISLIIDYSRLCPDSHKLGSLYIIASIGRAYLDETRSNSNSSSNKPGTCAHAINTLGEVIQELLSDAIAKSNQDHKEKIRMLLDIWDRSGLFQKSYLNAIRSKCFAMD | 39.8

Molecular target: T2, Nrd1p CID
Test: Equilibrium binding of FAM-labelled peptides to Nrd1p CID by fluorescence anisotropy (FA)
Parameters: species or system S. cerevisiae
Conditions: not given

Molecule | Kd [µM]
CC(C)C[C@H](NC(=O)[C@@H](NC(=O)[C@H](Cc1ccc(O)cc1)NC(=O)[C@@H]1CCCN1C(=O)[C@H](CC(N)=O)NC(=O)[C@H](Cc1ccc(O)cc1)NC(=O)CNC(=O)[C@H](CC(=O)O)NC(=O)[C@H](CCC(=O)O)NC(=O)[C@H](CC(=O)O)NC(=O)[C@H](CC(=O)O)NC(=O)[C@H](CC(=O)O)NC(=O)c1ccc2c(c1)C(=O)OC21c2ccc(O)cc2Oc2cc(O)ccc21)[C@@H](C)O)C(=O)O [Trf4p NIM] (HELM PEPTIDE1{[O=C1OC2(c3ccc(O)cc3Oc3cc(O)ccc32)c2ccc(C(=O)[*:2])cc21].D.D.D.E.D.G.Y.N.P.Y.T.L}$$$$V2.0; C-terminus assumed) | 1.09 ± 0.01
CC(C)C[C@H](NC(=O)[C@@H](NC(=O)[C@H](Cc1ccc(O)cc1)NC(=O)[C@@H]1CCCN1C(=O)[C@H](CC(N)=O)NC(=O)[C@H](Cc1ccc(O)cc1)NC(=O)CNC(=O)[C@H](CC(=O)O)NC(=O)[C@H](CCC(=O)O)NC(=O)[C@H](CCCNC(=N)N)NC(=O)[C@H](CC(=O)O)NC(=O)[C@H](CC(=O)O)NC(=O)c1ccc2c(c1)C(=O)OC21c2ccc(O)cc2Oc2cc(O)ccc21)[C@@H](C)O)C(=O)O [D575R] (HELM PEPTIDE1{[O=C1OC2(c3ccc(O)cc3Oc3cc(O)ccc32)c2ccc(C(=O)[*:2])cc21].D.D.R.E.D.G.Y.N.P.Y.T.L}$$$$V2.0) | 7.7 ± 0.2
CC(C)C[C@H](NC(=O)[C@@H](NC(=O)[C@H](Cc1ccc(O)cc1)NC(=O)[C@@H]1CCCN1C(=O)[C@H](CC(N)=O)NC(=O)[C@H](Cc1ccc(O)cc1)NC(=O)CNC(=O)[C@H](CCCNC(=N)N)NC(=O)[C@H](CCC(=O)O)NC(=O)[C@H](CC(=O)O)NC(=O)[C@H](CC(=O)O)NC(=O)[C@H](CC(=O)O)NC(=O)c1ccc2c(c1)C(=O)OC21c2ccc(O)cc2Oc2cc(O)ccc21)[C@@H](C)O)C(=O)O [D577R] (HELM PEPTIDE1{[O=C1OC2(c3ccc(O)cc3Oc3cc(O)ccc32)c2ccc(C(=O)[*:2])cc21].D.D.D.E.R.G.Y.N.P.Y.T.L}$$$$V2.0) | 24.2 ± 0.6
CC(C)C[C@H](NC(=O)[C@@H](NC(=O)[C@H](Cc1ccc(O)cc1)NC(=O)[C@@H]1CCCN1C(=O)[C@H](C)NC(=O)[C@H](Cc1ccc(O)cc1)NC(=O)CNC(=O)[C@H](CC(=O)O)NC(=O)[C@H](CCC(=O)O)NC(=O)[C@H](CC(=O)O)NC(=O)[C@H](CC(=O)O)NC(=O)[C@H](CC(=O)O)NC(=O)c1ccc2c(c1)C(=O)OC21c2ccc(O)cc2Oc2cc(O)ccc21)[C@@H](C)O)C(=O)O [N580A] (HELM PEPTIDE1{[O=C1OC2(c3ccc(O)cc3Oc3cc(O)ccc32)c2ccc(C(=O)[*:2])cc21].D.D.D.E.D.G.Y.A.P.Y.T.L}$$$$V2.0) | 4.3 ± 0.1
